US20130115212A1 (LUNDBECK A S, published 2013)
One block for each molecule: values may come before it. Where no end group is shown, it is not given here.

What was measured:
[1] = target: SorLA extracellular domain (immobilized on the Biacore chip) (Homo sapiens) (UniProt Q92673); test: SPR, GFRα1 over immobilized SorLA extracellular domain
[2] = target: SorLA extracellular domain (immobilized on the Biacore chip) (Homo sapiens) (UniProt Q92673); test: SPR (Biacore), SorLA immobilized; series of 20, 50, 100 and 200 nM
[3] = target: SorLA extracellular domain (immobilized on the Biacore chip) (Homo sapiens) (UniProt Q92673); test: SPR, immobilized SorLA
[4] = target: SorLA expressed on cells (stably transfected HEK293 cells; SY5Y neuroblastoma cells, endogenous or overexpressed) (Homo sapiens) (UniProt Q92673); test: FRET on non-permeabilized fixed cells, SorLA acceptor, GFRα1 donor
[5] = target: T1, SorLA extracellular domain (immobilized on the Biacore chip) (Homo sapiens, UniProt Q92673 82-2137); test: SPR (Biacore), SorLA immobilized; GST fusion protein, concentration not given
T1 construct: also called immobilized SorLA; LR11
Source text: (A) fusion proteins between GST and the GDNF propeptide (GDNFpropep), the N-terminal 38 amino acids of mature GDNF (GDNFN-term), or the GDNF propeptide followed by the first 38 amino acids of mature GDNF (GDNFN-term propep) binding to immobilized SorLA. GST alone is included as negative control. (B) a peptide encompassing the first 38 amino acids of mature GDNF binds to SorLA in concentration-dependent manner.

[6] = target: T1, SorLA extracellular domain (immobilized …); test: SPR, immobilized SorLA
[7] = target: T1, SorLA extracellular domain (immobilized …); test: SPR (Biacore), SorLA immobilized; SorLApro 10 uM by the legend, injected before GDNF in the inhibition experiment
Description: (§1) (A) The domain structure of SorLA is depicted. (B) GDNF binds to immobilized SorLA in a concentration-dependent manner as shown by SPR. […] (C) SorLA binding is selective for GDNF and not the other GDNF family ligands, artemin, neuturin, and persephin. The neurotrophic factor concentrations used are 20 nM. (D) The interaction is mediated by the mature part of GDNF and not the GDNF propeptide (GDNFpro). Sensorgrams of 100 nM ligand concentration are shown. […] (G-H) Internalization of 50 nM GDNF by 293 cells or 293 cells stably expressing SorLA. Internalized GDNF (green) was visualized by immunofluorescense. (I) GDNF internalization was inhibited by excess neurotensin (NT, 20 μM).

[8] = target: T1, SorLA extracellular domain (immobilized …); test: SPR, immobilized SorLA (title of Fig. 17)
[9] = target: T1, SorLA extracellular domain (immobilized …); test: SPR, GDNF over immobilized SorLA; lower end of the range
Description: as §1

[10] = target: T1, SorLA extracellular domain (immobilized …); test: SPR, GDNF over immobilized SorLA; upper end of the range
Description: as §1

SorLA extracellular domain (immobilized on the Biacore chip) (Homo sapiens), sequence (Q92673 82-2137 limits assumed): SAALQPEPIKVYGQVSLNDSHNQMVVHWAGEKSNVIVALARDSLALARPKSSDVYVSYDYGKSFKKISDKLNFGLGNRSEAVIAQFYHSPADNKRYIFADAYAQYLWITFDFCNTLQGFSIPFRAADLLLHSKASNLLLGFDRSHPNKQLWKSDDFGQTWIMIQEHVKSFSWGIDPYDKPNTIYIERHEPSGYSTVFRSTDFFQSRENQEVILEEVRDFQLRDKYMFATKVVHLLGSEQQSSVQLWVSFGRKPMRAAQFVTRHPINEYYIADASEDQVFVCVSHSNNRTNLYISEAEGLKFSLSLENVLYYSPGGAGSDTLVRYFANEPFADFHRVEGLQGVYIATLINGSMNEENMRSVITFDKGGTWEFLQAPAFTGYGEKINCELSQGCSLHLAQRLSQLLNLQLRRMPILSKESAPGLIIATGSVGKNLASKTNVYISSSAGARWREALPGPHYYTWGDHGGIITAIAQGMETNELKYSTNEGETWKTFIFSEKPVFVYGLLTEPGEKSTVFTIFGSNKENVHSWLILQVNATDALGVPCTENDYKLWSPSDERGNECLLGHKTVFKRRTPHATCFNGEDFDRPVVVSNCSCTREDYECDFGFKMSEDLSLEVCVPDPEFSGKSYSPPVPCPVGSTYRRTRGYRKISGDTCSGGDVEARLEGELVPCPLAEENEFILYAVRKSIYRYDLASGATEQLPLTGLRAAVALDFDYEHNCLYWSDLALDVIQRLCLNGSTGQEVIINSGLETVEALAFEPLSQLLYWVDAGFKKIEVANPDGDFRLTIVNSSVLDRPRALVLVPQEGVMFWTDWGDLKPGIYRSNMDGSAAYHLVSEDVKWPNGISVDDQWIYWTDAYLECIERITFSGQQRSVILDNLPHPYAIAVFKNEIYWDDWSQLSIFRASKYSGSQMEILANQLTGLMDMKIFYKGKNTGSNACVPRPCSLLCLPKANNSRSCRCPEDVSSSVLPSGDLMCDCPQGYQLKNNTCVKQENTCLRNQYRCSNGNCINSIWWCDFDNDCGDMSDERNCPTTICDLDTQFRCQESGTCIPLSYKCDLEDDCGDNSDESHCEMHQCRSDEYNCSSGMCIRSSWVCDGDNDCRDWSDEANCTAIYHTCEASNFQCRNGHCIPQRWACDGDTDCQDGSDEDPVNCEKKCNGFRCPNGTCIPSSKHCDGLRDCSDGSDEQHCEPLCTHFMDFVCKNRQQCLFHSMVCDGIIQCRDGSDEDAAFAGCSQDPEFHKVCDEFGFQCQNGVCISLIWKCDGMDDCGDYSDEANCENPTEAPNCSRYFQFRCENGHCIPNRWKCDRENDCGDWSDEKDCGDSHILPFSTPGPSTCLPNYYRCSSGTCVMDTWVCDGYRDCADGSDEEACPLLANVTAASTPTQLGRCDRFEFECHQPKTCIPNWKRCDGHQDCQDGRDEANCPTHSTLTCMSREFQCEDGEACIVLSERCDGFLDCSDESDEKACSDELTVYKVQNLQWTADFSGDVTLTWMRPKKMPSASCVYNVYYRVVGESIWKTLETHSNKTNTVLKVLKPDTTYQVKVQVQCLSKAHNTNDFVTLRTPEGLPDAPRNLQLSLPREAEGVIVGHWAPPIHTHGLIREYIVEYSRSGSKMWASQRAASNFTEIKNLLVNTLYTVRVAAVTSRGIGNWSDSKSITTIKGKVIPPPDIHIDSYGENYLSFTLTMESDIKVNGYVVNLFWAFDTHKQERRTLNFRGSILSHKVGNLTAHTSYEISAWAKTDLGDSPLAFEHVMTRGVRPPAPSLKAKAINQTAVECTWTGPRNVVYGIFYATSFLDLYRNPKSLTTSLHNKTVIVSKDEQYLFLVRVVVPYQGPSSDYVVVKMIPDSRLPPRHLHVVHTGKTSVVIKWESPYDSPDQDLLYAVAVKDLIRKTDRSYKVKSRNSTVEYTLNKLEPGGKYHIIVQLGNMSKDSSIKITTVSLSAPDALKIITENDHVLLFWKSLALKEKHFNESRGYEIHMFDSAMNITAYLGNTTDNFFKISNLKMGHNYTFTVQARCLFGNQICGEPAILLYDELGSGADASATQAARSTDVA
T1 sequence (Q92673 82-2137 limits assumed): as above
SorLA expressed on cells (stably transfected HEK293 cells; SY5Y neuroblastoma cells, endogenous or overexpressed) (Homo sapiens), sequence (Q92673 82-2214 limits assumed): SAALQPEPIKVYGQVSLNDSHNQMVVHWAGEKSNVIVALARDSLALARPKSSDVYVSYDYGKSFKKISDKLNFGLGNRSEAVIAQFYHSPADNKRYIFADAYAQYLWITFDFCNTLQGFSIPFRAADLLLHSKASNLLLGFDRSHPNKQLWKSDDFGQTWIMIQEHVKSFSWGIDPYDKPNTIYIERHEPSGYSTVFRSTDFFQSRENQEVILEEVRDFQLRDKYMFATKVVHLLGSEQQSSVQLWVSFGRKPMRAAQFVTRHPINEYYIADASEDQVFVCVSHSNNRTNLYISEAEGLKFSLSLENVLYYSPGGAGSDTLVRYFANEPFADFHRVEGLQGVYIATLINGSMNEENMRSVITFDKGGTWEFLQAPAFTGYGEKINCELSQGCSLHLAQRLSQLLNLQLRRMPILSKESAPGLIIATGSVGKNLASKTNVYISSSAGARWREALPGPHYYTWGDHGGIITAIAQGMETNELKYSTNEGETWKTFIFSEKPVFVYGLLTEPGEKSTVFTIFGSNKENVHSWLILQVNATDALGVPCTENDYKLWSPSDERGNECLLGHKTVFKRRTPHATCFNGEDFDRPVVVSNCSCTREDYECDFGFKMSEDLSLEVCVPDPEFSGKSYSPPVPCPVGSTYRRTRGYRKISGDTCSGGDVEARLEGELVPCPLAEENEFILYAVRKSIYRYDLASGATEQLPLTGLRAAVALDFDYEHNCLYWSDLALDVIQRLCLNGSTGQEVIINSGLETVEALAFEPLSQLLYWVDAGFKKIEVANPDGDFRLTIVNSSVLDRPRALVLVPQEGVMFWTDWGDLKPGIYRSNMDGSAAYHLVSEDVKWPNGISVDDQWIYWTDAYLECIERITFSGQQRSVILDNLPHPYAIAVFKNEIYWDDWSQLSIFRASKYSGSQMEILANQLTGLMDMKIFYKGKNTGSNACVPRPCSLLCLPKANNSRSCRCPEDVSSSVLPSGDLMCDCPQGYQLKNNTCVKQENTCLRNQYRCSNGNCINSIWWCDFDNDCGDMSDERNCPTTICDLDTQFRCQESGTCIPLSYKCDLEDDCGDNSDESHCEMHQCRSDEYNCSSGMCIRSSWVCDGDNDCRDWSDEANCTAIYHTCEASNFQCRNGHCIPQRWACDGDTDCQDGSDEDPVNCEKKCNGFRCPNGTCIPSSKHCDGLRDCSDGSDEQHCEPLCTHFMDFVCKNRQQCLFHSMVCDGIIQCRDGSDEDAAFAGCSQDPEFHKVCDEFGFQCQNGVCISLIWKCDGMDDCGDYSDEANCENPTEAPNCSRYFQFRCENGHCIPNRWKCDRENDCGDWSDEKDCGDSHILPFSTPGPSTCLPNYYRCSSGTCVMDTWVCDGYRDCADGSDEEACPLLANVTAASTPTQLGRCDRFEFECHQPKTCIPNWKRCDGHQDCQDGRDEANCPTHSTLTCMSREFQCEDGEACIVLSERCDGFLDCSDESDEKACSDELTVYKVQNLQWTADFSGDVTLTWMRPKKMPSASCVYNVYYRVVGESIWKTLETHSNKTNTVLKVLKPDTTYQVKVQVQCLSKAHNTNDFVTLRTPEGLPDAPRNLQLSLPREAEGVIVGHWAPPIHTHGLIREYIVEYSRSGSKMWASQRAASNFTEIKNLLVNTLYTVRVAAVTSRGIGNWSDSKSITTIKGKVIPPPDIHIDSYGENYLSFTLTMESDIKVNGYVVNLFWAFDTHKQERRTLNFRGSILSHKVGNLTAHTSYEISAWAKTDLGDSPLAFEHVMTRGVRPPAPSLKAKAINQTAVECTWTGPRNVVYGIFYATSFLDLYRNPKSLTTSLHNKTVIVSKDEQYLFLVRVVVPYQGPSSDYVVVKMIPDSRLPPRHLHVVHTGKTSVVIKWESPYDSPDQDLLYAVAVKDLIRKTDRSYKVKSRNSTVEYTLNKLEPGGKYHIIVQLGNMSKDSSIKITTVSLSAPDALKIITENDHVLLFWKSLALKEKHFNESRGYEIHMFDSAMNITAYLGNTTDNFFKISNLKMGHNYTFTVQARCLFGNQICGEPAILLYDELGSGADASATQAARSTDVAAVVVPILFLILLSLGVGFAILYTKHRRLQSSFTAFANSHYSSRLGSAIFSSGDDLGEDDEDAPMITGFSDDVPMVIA

Molecule: GFRα1 expressed on cells (stably transfected HEK293 cells) (from UniProt P56159 25-429) (receptor)
- mean Eapp% [4]: 16%

Molecule: N-terminal truncated soluble GFRα1 variant lacking domain 1 (from UniProt P56159 145-429) (receptor)
- Kd [3]: 0.12 µM

B3: SorLA propeptide (peptide)
peptide: EVWTQRLHGGSAPLPQDRGFLVVQGDPRELRLWARGDARGASRADEKPLRRKR
- binding result [7]: binds

B4: GDNFN-term (other)
chain: SPDKQMAVLPRRERNRQAAAANPENSRGKGRRGQRGKN
modifications: also: GST fusion partner (letters not given here)
notes: also called GST fusion of the N-terminal 38 amino acids of mature GDNF; not shown: GST fusion partner and any linker to it
- binding result [5]: binds

B5: peptide encompassing the first 38 amino acids of mature GDNF (peptide)
peptide: B4 chain
notes: also called N-terminal 38 amino acids of mature GDNF
- binding result [8]: binds

B9: Glia cell-derived neurotrophic factor (GDNF) (ligand)
chain: SPDKQMAVLPRRERNRQAAAANPENSRGKGRRGQRGKNRGCVLTAIHLNVTDLGLGYETKEELIFRYCSGSCDAAETTYDKILKNLSRNRRLVSDKVGQACCRPIAFDDDLSFLDDNLVYHILRKHSAKRCGCI
notes: also called mature GDNF
- Kd [9]: ≥ 0.003 µM
- Kd [10]: ≤ 0.008 µM

Other lines, results leading:

- Kd [1]: 0.006 µM
- Kd [2]: 0.01 µM
- Kd [3]: 0.012 µM
Molecule: soluble full length GFRα1 (from UniProt P56159 25-429) (receptor)

- binding result [5]: no binding
B1: GDNFpropep (other)
fusion protein: FPLPAGKRPPEAPAEDRSLGRRRAPFALSSDSNMPEDYPDQFDDVMDFIQATIKRLKR
notes: also called GST fusion of the GDNF propeptide

- binding result [6]: no binding (tested: 100 nM)
B2: GDNF propeptide (peptide)
peptide: B1 fusion protein

- binding result [6]: no binding (tested: 20 nM)
B6: artemin (ligand, UniProt Q5T4W7 108-220, looked up)
chain: AGGPGSRARAAGARGCRLRSQLVPVRALGLGHRSDELVRFRFCSGSCRRARSPHDLSLASLLGAGALRPPPGSRPVSQPCCRPTRYEAVSFMDVNSTWRTVDRLSATACGCLG
notes: also called ARTN

- binding result [6]: no binding (tested: 20 nM)
B7: neuturin (neurturin) (ligand, UniProt Q99748 96-197, looked up)
chain: ARLGARPCGLRELEVRVSELGLGYASDETVLFRYCAGACEAAARVYDLGLRRLRQRRRLRRERVRAQPCCRPTAYEDEVSFLDAHSRYHTVHELSARECACV
notes: also called NRTN

- binding result [5]: binds
B8: GDNFN-term propep (other, not shown: a dimerising Fc or GST; large carriers; small tags and cut ends)
chain: FPLPAGKRPPEAPAEDRSLGRRRAPFALSSDSNMPEDYPDQFDDVMDFIQATIKRLKRSPDKQMAVLPRRERNRQAAAANPENSRGKGRRGQRGKN
notes: also called GST fusion of the GDNF propeptide followed by the first 38 amino acids of mature GDNF

- binding result [6]: no binding (tested: 20 nM)
B10: persephin (ligand, UniProt O60542 61-156, looked up)
chain: ALSGPCQLWSLTLSVAELGLGYASEEKVIFRYCAGSCPRGARTQHGLALARLQGQGRAHGGPCCRPTRYTDVAFLDDRHRWQRLPQLSAAACGCGG
notes: also called PSPN
